Reference: PMC4964339 (Scientific Reports, 2016)

Target: T1, human claudin-4 (residues 1-183), tag-free (human, UniProt O14493 1-183)
T1 construct: also called tag-free claudin-4
T1 sequence (looked up): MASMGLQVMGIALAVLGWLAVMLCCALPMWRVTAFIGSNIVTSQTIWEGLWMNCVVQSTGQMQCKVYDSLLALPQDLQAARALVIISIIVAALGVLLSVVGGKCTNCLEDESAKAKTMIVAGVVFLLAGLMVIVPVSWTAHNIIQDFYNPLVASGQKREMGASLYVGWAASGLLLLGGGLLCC
Assay: SPR
Conditions: both partners purified

B1: GST-tagged C-CPE (C-terminal fragment of Clostridium perfringens enterotoxin, residues 185-319) (domain or fragment)
chain: RCVLTVPSTDIEKEILDLAAATERLNLTDALNSNPAGNLYDWRSSNSYPWTQKLNLHLTITATGQKYRILASKIVDFNIYSNNFNNLVKLEQSLGDGVKDHYVDISLDAGQYVLVMKANSSYSGNYPYSILFQKF
  Kd: 3.4 nM
